Experimental data taken from the supplement of paper PMC9170038.

Tested on: MS2 coat protein
Assay: apparent KD of MS2 coat protein; designed switch direction (-1 OFF switch, 1 ON switch): 1; higher = weaker reporter binding
In short: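 SNAP-549-labelled MS2 coat protein was titrated, doubling from 0.7 or 1.5 nM to 3 µM, over designed RNA switches transcribed on Illumina chips by stalled E. coli RNA polymerase. Runs were done without input, with 200 uM small-molecule ligand, or with an oligonucleotide input. Apparent KD is the per-design median over clusters of curve-fitted normalised fluorescence.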

[1] = input ligand: microRNA oligo, concentration not stated
[2] = Eterna round: R95, input ligand: microRNA oligo, concentration not stated
[3] = Eterna round: R95, input ligand: FMN 200 uM
[4] = Eterna round: R95, input ligand: none

| Sequence | apparent KD of MS2 coat protein (input ligand: FMN 200 uM) [nM] | apparent KD of MS2 coat protein [1] [nM] | apparent KD of MS2 coat protein (input ligand: none) [nM] | apparent KD of MS2 coat protein [2] [nM] | apparent KD of MS2 coat protein [3] [nM] | apparent KD of MS2 coat protein [4] [nM] |
| --- | --- | --- | --- | --- | --- | --- |
| CACAUGAGGAUCACCCAUGUGAGGCGGCAAUAAAGCCGCGCACAGGAUAUAGCGCUAUGAAUGCGCUAGAAGGGUGAUUAGAAC [Reines] (Eterna round: R96, puzzle: Same State NG 3) | 240 | 59.9 | 36.5 |  |  |  |
| CACGCCUCGGUAGGAUAUGAGGUGCCAUAGGCAACAGCCUAUGGACAUGAGGAUCACCCAUGUCCUCAGAAGGGCCAGGCGUGA [Rexeorar] (Eterna round: R96, puzzle: Same State NG 2) | 25.9 | 66.3 | 114 |  |  |  |
| CAGAGCCCAUGGGCCUGACAUGAGGAUCACCCAUGUGGCUUUGAGGAUAUAAGCGGAAACACCGCUUAGAAGGCGAAGCCUAAC [Atxerati] (Eterna round: R96, puzzle: Same State NG 3) | 79.5 | 18.7 | 34.3 |  |  |  |
| CAGCGCUGUUGAGAGGAUAUGCGGUGAUGGACAUGAGGAUCACCCAUGUUAGCGACAGCAUUACGGUAGAAGGCUCCACAGCUGC [Soteed Omei mod 14] (puzzle: Same State 2) |  |  |  | 17.9 |  |  |
| CAUCGUUUGAUAGGAUAUCGCUAUACAUGAGGAUCACCCAUGUUUACCACGCUGGUUUUUCAUACCGAGAAGGAUUCUGAUGAG [salish99_SSNG02_r04_012] (Eterna round: R96, puzzle: Same State NG 2) | 55.3 | 38.3 | 47.6 |  |  |  |
| CCAACAUACAAUUUAAGAUCACAUGAGGAUCACCCAUGUAUGCAGGAUAUCAGCUCGAAUAGAGCUGAGAAGGGCAAUUUAAUU [SSNG3/1-A1] (Eterna round: R96, puzzle: Same State NG 3) | 94.7 | 127 | 262 |  |  |  |
| CCAUAGUACAAUUUAGAUCUACAUGAGGAUCACCCAUGUACUGAGGAUAUCAGCUCGUUUAGAGCUGAGAAGGCAGAAGUACUU [SSNG3/6-A3] (Eterna round: R96, puzzle: Same State NG 3) | 34.2 | 64.8 | 102 |  |  |  |
| CCGAUGAUAGGACAGGAUAUGACUGUCGUCACAUGAGGAUCACCCAUGUCCCGGCAAUGCCACCGUUAGAAGGGUCCUAUCUCGG [Orraais] (puzzle: Same State 2) |  |  |  | 11.9 |  |  |
| CCGAUUUAUGGAGGAUAUGGAGCCUUAUUGGCUCCAGAAGGUCAAUAAACAUGAGGAUCACCCAUGUCGGCGGUCAAUAGACCG [Eli NG1ss - 71] (Eterna round: R96, puzzle: Same State NG 1) | 103 | 84.4 | 180 |  |  |  |
| CCGCGCUGUCGAGAGGAUAUGCGGUGAUGGACAUGAGGAUCACCCAUGUUAGCGAUAGCAUUACUGUAGAAGGCUCUACGGCGGC [JL-ss2-3.09 ViennaUCT mod] (Eterna round: R96, puzzle: Same State 2) | 11.2 | 10.2 | 16.3 |  |  |  |
| CCGCGCUGUCGAGAGGAUAUGCGGUGAUGGACAUGAGGAUCACCCAUGUUAGCGAUAGCAUUACUGUAGAAGGCUCUACGGCGGC [JL-ss2-3.09 ViennaUCT mod] (puzzle: Same State 2) |  |  |  | 10.4 | 12.2 | 11.9 |
| CCGCUCCGUGGAGGAUAUGGGCCUGCCCGGGAUACCGAGCCUAACACAUGAGGAUCACCCAUGUCCCAGAAGGCCGCUGGAGCC [Inusaron] (Eterna round: R96, puzzle: Same State NG 2) | 30.7 | 52.8 | 90.7 |  |  |  |
| CCGCUCCGUGGAGGAUAUGGGCCUGCCCGGGAUACCGGGCCUAACACAUGAGGAUCACCCAUGUCCCAGAAGGCCGCUGGAGCC [Rasoleis] (Eterna round: R96, puzzle: Same State NG 2) | 18.9 | 85.1 | 58.2 |  |  |  |
| CCGGUUUAUGGAGGAUAUGGAGCCUUAUUGGCUCCAGAAGGCUAAUAACAUGAGGAUCACCCAUGUCCGGCGGUCAAUAGACCG [Eli NG1ss - 57] (Eterna round: R96, puzzle: Same State NG 1) | 21.7 | 69.8 | 90.5 |  |  |  |
| CCGUAAUAUGGAGGAUAUGGAGCCUUAUUGGCUCCAGAAGGUCAAAACACAUGAGGAUCACCCAUGUCGGCGGUCAAUAGACCG [Eli NG1ss - 75] (Eterna round: R96, puzzle: Same State NG 1) | 31.4 | 42.9 | 45.3 |  |  |  |
| CCGUUGAUAGGACAGGAUAUGACUGUCGUCACAUGAGGAUCACCCAUGUCCCGGCAAUGCCACCGUUAGAAGGGUCCCGUCUCGG [Beenraor] (puzzle: Same State 2) |  |  |  | 16.9 |  |  |
| CGACGCACGGCAGGAUAUCGAUUCCAAAGGAAUCGAGAAGGGCCUCAUGUCGUGGAAACGUGACAUGAGGAUCACCCAUGUUGC [Omei SS(NG)1 Cv19] (Eterna round: R96, puzzle: Same State NG 1) | 115 | 9.29 | 27.9 |  |  |  |
| CGACGCUGUCGAGAGGAUAUGCGGUGAUGGACAUGAGGAUCACCCAUGUUAGCGAUAGCAUUACGGUAGAAGGCUCUACAGCUGU [Soteed Omei mod 5] (puzzle: Same State 2) |  |  |  | 202 | 20.4 | 118 |
| CGAUCAUACUCAGGACGGAGAGUAGAGGAACAUGAGGAUCACCCAUGUAUGAGCUUUUUGCUCGUCAUGAACAGGAG [JR_SHM208a_Sub010] (puzzle: Sensor for hsa-mir-208a) |  |  |  | 59.7 | 67.2 | 121 |
| CGAUGAUACUUAGGAAGAAGAGUUGAAGUACAUGAGGAUCACCCAUGUCAGAGCUUUUUGCUCGUCAUGAACAGGAA [JR_SHM208a_Sub006] (puzzle: Sensor for hsa-mir-208a) |  |  |  | 27.7 | 47.9 | 52.9 |
| CGGGACAGACCCAACAUGAGGAUCACCCAUGUCCUCGCAGGUCAGGAUAUUAUUAGGAUCACCAGUGAGAAGGGACGGUGAACC (Eterna round: R96, puzzle: Same State NG 3) | 470 | 281 | 373 |  |  |  |
| CGUAGGUAGCUGGAGGAUAUUCGAGUGGUAACAUGAGGAUCACCCAUGUGGAUAGAGGAACAUGAGGAGAAGGCUAGCUGCCUGC [JL-ss2-3.20 JL mod] (puzzle: Same State 2) |  |  |  | 26.6 | 11.3 | 30.6 |
| CGUCCGGCCUGUGCUGGCCGGAAGCAUGUACAUGAGGAUCACCCAUGUUCAUGUGCAGGCUUUUUGCUCGUCUUGUG [salish99_mir208a_r3_006] (puzzle: Sensor for hsa-mir-208a) |  |  |  | 12.4 | 41.3 | 39.4 |
| CGUCCGGCCUGUGCUGGCCGGAAGCAUGUACAUGAGGAUCACCCAUGUUCUUGUGCAGGCUUUUUGCUCGUCUUGUG [salish99_mir208a_010] (puzzle: Sensor for hsa-mir-208a) |  |  |  | 14.7 | 24.9 | 22.2 |
| CGUCCGGCCUGUGCUGGCCGGUAGCUUGUACAUGAGGAUCACCCAUGUUCUUGUGCAGGCUUUUUGCUCGUCUUGUG [salish99_mir208a_016] (puzzle: Sensor for hsa-mir-208a) |  |  |  | 23.9 | 365 | 452 |
| CGUCCGGCCUGUGCUGGCCGGUGGCUUGUACAUGAGGAUCACCCAUGUUCUUGUGCUGGCUGUUUGCUCGUCUUGUG [salish99_mir208a_r3_021] (puzzle: Sensor for hsa-mir-208a) |  |  |  | 22.6 | 50.2 | 61.2 |
| CGUCGCUGUCGAGAGGAUAUGCGGUGGUGGACAUGAGGAUCACCCAUGUUAGCGAUAGCAUCACGGUAGAAGGCUCUUACGACUG [Soteed Omei mod 25] (puzzle: Same State 2) |  |  |  | 18.1 |  |  |
| CGUUCAUACUCAGGACGGAGAGUAGAGGAACAUGAGGAUCACCCAUGUAUGAGCUUUUUGCUCGUCAUGAACAGGAG [JR_SHM208a_Sub011] (puzzle: Sensor for hsa-mir-208a) |  |  |  | 72.2 | 103 | 117 |
| CUAUCUACAGGUGUCAGUGCUCGUCUUAUACAUGAGGAUCACCCAUGUUAUAGCCCGGUGCUUGCGCUGGGCUGAUU [JL ViennaUCT Tearor mod 4] (puzzle: Sensor for hsa-mir-208a) |  |  |  | 14.2 | 54.8 | 66.9 |
